# Measured values: PMC5428533
# pKd: −log10 of the molar value.
# Columns and labels:
# [1] = target: complement regulator Factor H (FH) (human) (UniProt P08603); assay: MST; FH (6.67 µM) or C9 (15.15 µM) labelled with NT-647 RED-NHS; non-labelled CbiA diluted 1:2 from 76 to 0.0002 µM; fluid phase, 20% LED power, 80% MST power, 30 s, Monolith NT.115, room temperature, triplicate
# [2] = target: complement component C9 (human) (UniProt P02748); assay: as above
# Chain of UniProt P02748 (P02748 22-559): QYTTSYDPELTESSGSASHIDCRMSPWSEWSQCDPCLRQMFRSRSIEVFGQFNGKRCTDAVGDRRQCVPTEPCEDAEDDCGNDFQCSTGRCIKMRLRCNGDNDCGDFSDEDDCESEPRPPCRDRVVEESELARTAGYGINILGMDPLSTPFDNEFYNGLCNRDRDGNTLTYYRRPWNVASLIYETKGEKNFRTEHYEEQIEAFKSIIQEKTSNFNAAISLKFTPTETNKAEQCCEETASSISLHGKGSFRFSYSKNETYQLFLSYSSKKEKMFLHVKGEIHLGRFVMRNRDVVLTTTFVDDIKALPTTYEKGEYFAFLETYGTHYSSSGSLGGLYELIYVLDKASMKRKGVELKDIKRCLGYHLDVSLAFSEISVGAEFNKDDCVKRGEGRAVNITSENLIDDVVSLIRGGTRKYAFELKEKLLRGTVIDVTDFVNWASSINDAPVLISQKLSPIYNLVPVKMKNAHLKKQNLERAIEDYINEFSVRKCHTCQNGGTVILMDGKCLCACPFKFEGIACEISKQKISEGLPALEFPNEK
# Chain of UniProt P08603 (P08603 19-1231): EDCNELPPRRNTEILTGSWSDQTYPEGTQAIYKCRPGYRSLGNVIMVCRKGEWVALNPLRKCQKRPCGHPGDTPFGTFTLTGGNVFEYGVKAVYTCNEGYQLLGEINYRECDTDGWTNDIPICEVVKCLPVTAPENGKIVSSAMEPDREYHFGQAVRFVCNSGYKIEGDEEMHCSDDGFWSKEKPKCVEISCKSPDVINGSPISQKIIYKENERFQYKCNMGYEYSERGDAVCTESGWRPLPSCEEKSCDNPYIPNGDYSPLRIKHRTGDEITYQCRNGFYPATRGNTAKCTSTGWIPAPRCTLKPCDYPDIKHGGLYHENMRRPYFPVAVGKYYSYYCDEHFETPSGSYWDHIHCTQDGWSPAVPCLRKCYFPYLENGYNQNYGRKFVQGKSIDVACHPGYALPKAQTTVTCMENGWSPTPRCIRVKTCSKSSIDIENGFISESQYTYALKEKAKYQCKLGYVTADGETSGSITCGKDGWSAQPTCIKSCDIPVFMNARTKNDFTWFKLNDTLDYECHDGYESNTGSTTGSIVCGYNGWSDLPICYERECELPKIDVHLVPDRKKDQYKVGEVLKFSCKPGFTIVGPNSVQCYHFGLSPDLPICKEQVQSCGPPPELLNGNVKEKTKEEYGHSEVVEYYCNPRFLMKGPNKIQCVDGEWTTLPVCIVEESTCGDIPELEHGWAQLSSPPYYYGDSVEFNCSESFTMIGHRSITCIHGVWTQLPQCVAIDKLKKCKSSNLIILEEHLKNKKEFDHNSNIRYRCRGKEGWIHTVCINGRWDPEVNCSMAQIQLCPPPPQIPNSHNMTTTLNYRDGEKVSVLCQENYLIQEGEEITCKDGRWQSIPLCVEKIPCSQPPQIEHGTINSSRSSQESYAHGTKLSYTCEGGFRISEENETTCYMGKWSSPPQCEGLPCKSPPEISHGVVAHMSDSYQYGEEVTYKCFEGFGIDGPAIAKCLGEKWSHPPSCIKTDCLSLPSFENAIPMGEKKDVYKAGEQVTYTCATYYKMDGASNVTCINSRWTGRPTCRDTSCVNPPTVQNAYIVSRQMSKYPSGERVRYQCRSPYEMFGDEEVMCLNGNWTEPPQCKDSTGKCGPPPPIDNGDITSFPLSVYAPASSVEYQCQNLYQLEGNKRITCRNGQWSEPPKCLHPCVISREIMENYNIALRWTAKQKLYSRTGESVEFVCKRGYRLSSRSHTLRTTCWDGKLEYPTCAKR
substance,measurement,setting,value
"CbiA (complement binding and inhibitory protein A) of B. miyamotoi HT31, His6-tagged recombinant protein (natural protein)",pKd,[1],5.18
same,pKd,[2],7.28
